Measured values taken from publication PMC10319729.

Target: LGR4 co-expressed with ZNRF3ΔRING on HEK293T cells (LGR4-E3 ligase complex), Q9BXB1

B1: RSPO2 furin domain with a C-terminal His tag (R2Fu-His), Q6UXX9 37-143 (domain or fragment)
chain: NPICKGCLSCSKDNGCSRCQQKLFFFLRREGMRQYGECLHSCPSGYYGHRAPDMNRCARCRIENCDSCFSKDFCTKCKVGFYLHRGRCFDECPDGFAPLEETMECVE
Q: B1 was tested. Which EC50 of TOPFlash (Wnt/β-catenin reporter) activity in STF cells, which endogenously express LGR4, RNF43 and ZNRF3 did it give?
A: 0.79 nM
